The source of these data is article PMC11992055, “Identification of RING E3 pseudoligases in the TRIM protein family” (Nature Communications, 2025).

The series deals with the molecule itself. The series can be described thus: SEC-MALS; SEC-MALLS; Superdex 200 Increase 10/300; 120 µl sample at 1–6 mg/ml; 50 mM HEPES pH 7.5, 150 mM NaCl, 0.5 mM TCEP, 3 mM NaN3; 0.5 ml/min. (In general: SEC sorts molecules by how far they enter the pores of the column.)

B1: TRIM6 RING domain (residues 1-87), wild type (domain or fragment, human, UniProt Q9C030 1-87, looked up)
chain: MTSPVLVDIREEVTCPICLELLTEPLSIDCGHSFCQACITPNGRESVIGQEGERSCPVCQTSYQPGNLRPNRHLANIVRRLREVVLG
notes: TRIM6, human, RING domain, residues 1-87; Forms dimers in solution by SEC-MALLS; The His6 tag is HRV 3C cleavable; also called TRIM6 RING WT; source: E. coli BL21, purified (Ni-NTA, size-exclusion chromatography)
For the protein B1, the “stoichiometry N” value was 2.

B2: TRIM22 RING domain (residues 1-87), wild type (domain or fragment, human, UniProt Q8IYM9 1-87, looked up)
chain: MDFSVKVDIEKEVTCPICLELLTEPLSLDCGHSFCQACITAKIKESVIISRGESSCPVCQTRFQPGNLRPNRHLANIVERVKEVKMS
notes: TRIM22, human, RING domain, residues 1-87; Monomer-dimer equilibrium by SEC-MALLS; The His6 tag is HRV 3C cleavable; also called TRIM22 RING WT; source: E. coli BL21, purified (Ni-NTA, size-exclusion chromatography)
Turning to B2, the “stoichiometry N” value worked out at 2.

As a reminder, the stoichiometry N is the number of molecules, sites or subunits per partner or assembly.
